From US20110263454A1, “Methods of Identifying Functional Characteristics of Promoters, Transcription Modifying Proteins and Transcription Modulating Agents” (Salk Institute for Biological Studies, priority 2008, published 2011)

Legend:
mUCP3 promoter = experiment: NHR-promoter luciferase screen, mUCP3 promoter; format: cell-based, mouse; conditions: for Normalized Luc. act., normalized to control / Luc. act., normalized to lacZ: mUCP3 promoter reporter; for Normalized Luc. act., normalized to control: HR without or with its ligand, relative to control; for Luc. act., normalized to lacZ: hormone receptor (HR) without or with its ligand; for mUCP3 promoter reporter activity: transcription factor +/- ligand, control = 1.00
Summary of the method: (§1)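 CV-1 cells were co-transfected with 50 ng NHR (homodimer or NHR/RXR heterodimer), 100 ng promoter-luciferase construct and 50 ng LacZ. Luciferase was normalized to LacZ and to a no-NHR/no-ligand control.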

MCP-1 promoter = experiment: NHR-promoter luciferase screen, MCP-1 promoter; format: cell-based; conditions: for Normalized Luc. act., normalized to control / Luc. act., normalized to lacZ: MCP-1 promoter reporter; for Normalized Luc. act., normalized to control: HR without or with its ligand, relative to control; for Luc. act., normalized to lacZ: hormone receptor (HR) without or with its ligand; for mMCP-1 promoter reporter activity: transcription factor +/- ligand, control = 1.00
Summary of the method: as §1

mADRP promoter = experiment: NHR-promoter luciferase screen, mADRP promoter; format: cell-based, mouse; conditions: for Luc. act., normalized to lacZ / Normalized Luc. act., normalized to control: ADRP promoter, HR/ligand component; for mADRP promoter reporter activity: transcription factor +/- ligand, control = 1.00
Summary of the method: as §1

hCYP3A4 promoter = experiment: NHR-promoter luciferase screen, hCYP3A4 promoter; format: cell-based, human; conditions: for Luc. act., normalized to lacZ / Normalized Luc. act., normalized to control: CYP3A4 promoter, HR/ligand component; for hCYP3A4 promoter reporter activity: transcription factor +/- ligand, control = 1.00
Summary of the method: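 CV-1 cells co-transfected with NHR homodimer or NHR/RXR heterodimer (pcDNA3.1, C-terminal V5H6 tag), promoter-luciferase construct and LacZ transfection control. Orphan receptors screened without ligand. Luciferase normalized to LacZ and to no-NHR/no-ligand control.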

mABCA1 promoter = experiment: NHR-promoter luciferase screen, mABCA1 promoter; format: cell-based, mouse; conditions: for Luc. act., normalized to lacZ / Normalized Luc. act., normalized to control: ABCA1 promoter, hormone receptor with or without its ligand; for Normalized Luc. act., normalized to control: relative to control; for mABCA1 promoter reporter activity: transcription factor +/- ligand, control = 1.00
Summary of the method: as §1

mPer1 promoter = experiment: NHR-promoter luciferase screen, mPer1 promoter; format: cell-based, mouse; conditions: for Luc. act., normalized to lacZ / Normalized Luc. act., normalized to control: Per1 promoter reporter, co-transfected HR, with or without its ligand; for Normalized Luc. act., normalized to control: relative to control; for luciferase activity normalized to lacZ activity and to a control, mPer1: mPer1 promoter-luciferase, CV-1 cells, NHR +/- ligand, control = 1.00
Summary of the method: as §1

Row | Molecule | Normalized Luc. act., normalized to control (mUCP3 promoter) | Luc. act., normalized to lacZ (mUCP3 promoter) | mUCP3 promoter reporter activity (mUCP3 promoter) | Normalized Luc. act., normalized to control (MCP-1 promoter) | Luc. act., normalized to lacZ (MCP-1 promoter) | mMCP-1 promoter reporter activity (MCP-1 promoter) | Luc. act., normalized to lacZ (mADRP promoter) | Normalized Luc. act., normalized to control (mADRP promoter) | mADRP promoter reporter activity (mADRP promoter) | Luc. act., normalized to lacZ (hCYP3A4 promoter) | Normalized Luc. act., normalized to control (hCYP3A4 promoter) | hCYP3A4 promoter reporter activity (hCYP3A4 promoter) | Luc. act., normalized to lacZ (mABCA1 promoter) | Normalized Luc. act., normalized to control (mABCA1 promoter) | mABCA1 promoter reporter activity (mABCA1 promoter) | Luc. act., normalized to lacZ (mPer1 promoter) | Normalized Luc. act., normalized to control (mPer1 promoter) | luciferase activity normalized to lacZ activity and to a control, mPer1 (mPer1 promoter)
1 | RARg: Retinoic acid receptor γ (NR1B3), nuclear hormone receptor cDNA driver (protein, UniProt P13631 1-454, looked up) Retinoic acid receptor gamma: MATNKERLFAAGALGPGSGYPGAGFPFAFPGALRGSPPFEMLSPSFRGLGQPDLPKEMASLSVETQSTSSEEMVPSSPSPPPPPRVYKPCFVCNDKSSGYHYGVSSCEGCKGFFRRSIQKNMVYTCHRDKNCIINKVTRNRCQYCRLQKCFEVGMSKEAVRNDRNKKKKEVKEEGSPDSYELSPQLEELITKVSKAHQETFPSLCQLGKYTTNSSADHRVQLDLGLWDKFSELATKCIIKIVEFAKRLPGFTGLSIADQITLLKAACLDILMLRICTRYTPEQDTMTFSDGLTLNRTQMHNAGFGPLTDLVFAFAGQLLPLEMDDTETGLLSAICLICGDRMDLEEPEKVDKLQEPLLEALRLYARRRRPSQPYMFPRMLMKITDLRGISTKGAERAITLKMEIPGPMPPLIREMLENPEMFEDDSSQPGPHPNASSEDEVPGGQGKGGLKSPA | 2.0 | 1.3 | 1.98 | 1.6 | 167.8 | 1.57 | 765.4 | 1.5 | 1.54 | 4.0 | 0.9 | 0.91 | 26.4 | 4.7 | 4.69 | 120.3 | 0.8 | 0.84
2 | PXR: Pregnane X Receptor (NR1I2), cDNA driver (protein, UniProt O75469 1-434, looked up) Nuclear receptor subfamily 1 …: MEVRPKESWNHADFVHCEDTESVPGKPSVNADEEVGGPQICRVCGDKATGYHFNVMTCEGCKGFFRRAMKRNARLRCPFRKGACEITRKTRRQCQACRLRKCLESGMKKEMIMSDEAVEERRALIKRKKSERTGTQPLGVQGLTEEQRMMIRELMDAQMKTFDTTFSHFKNFRLPGVLSSGCELPESLQAPSREEAAKWSQVRKDLCSLKVSLQLRGEDGSVWNYKPPADSGGKEIFSLLPHMADMSTYMFKGIISFAKVISYFRDLPIEDQISLLKGAAFELCQLRFNTVFNAETGTWECGRLSYCLEDTAGGFQQLLLEPMLKFHYMLKKLQLHEEEYVLMQAISLFSPDRPGVLQHRVVDQLQEQFAITLKSYIECNRPQPAHRFLFLKIMAMLTELRSINAQHTQRLLRIQDIHPFATPLMQELFGITGS | 1.3 | 0.9 | 1.34 | 2.0 | 209.7 | 1.96 | 1021.2 | 2.1 | 2.05 | 8.8 | 2.0 | 1.98 | 15.2 | 2.7 | 2.72 | 186.7 | 1.3 | 1.30
3 | FXR: Farnesoid X Receptor (NR1H4), cDNA driver (protein, UniProt Q96RI1 1-486, looked up) Bile acid receptor: MVMQFQGLENPIQISPHCSCTPSGFFMEMMSMKPAKGVLTEQVAGPLGQNLEVEPYSQYSNVQFPQVQPQISSSSYYSNLGFYPQQPEEWYSPGIYELRRMPAETLYQGETEVAEMPVTKKPRMGASAGRIKGDELCVVCGDRASGYHYNALTCEGCKGFFRRSITKNAVYKCKNGGNCVMDMYMRRKCQECRLRKCKEMGMLAECMYTGLLTEIQCKSKRLRKNVKQHADQTVNEDSEGRDLRQVTSTTKSCREKTELTPDQQTLLHFIMDSYNKQRMPQEITNKILKEEFSAEENFLILTEMATNHVQVLVEFTKKLPGFQTLDHEDQIALLKGSAVEAMFLRSAEIFNKKLPSGHSDLLEERIRNSGISDEYITPMFSFYKSIGELKMTQEEYALLTAIVILSPDRQYIKDREAVEKLQEPLLDVLQKLCKIHQPENPQHFACLLGRLTELRTFNHHHAEMLMSWRVNDHKFTPLLCEIWDVQ | 1.3 | 0.9 | 1.30 | 1.2 | 124.1 | 1.16 | 658.3 | 1.3 | 1.32 | 4.2 | 0.9 | 0.93 | 14.0 | 2.5 | 2.50 | 98.0 | 0.7 | 0.68
